Assay results: paper PMC2943609

Assays:
CggR [1] = biological target: T1, CggR (Bacillus subtilis, UniProt O32253 1-340); experiment: SEC and SAXS
CggR [2] = biological target: T1, CggR; experiment: SEC and SAXS; remark: listed apart in the source
CggR [3] = biological target: T1, CggR; experiment: two-photon FCCS

T1 sequence (O32253 whole entry): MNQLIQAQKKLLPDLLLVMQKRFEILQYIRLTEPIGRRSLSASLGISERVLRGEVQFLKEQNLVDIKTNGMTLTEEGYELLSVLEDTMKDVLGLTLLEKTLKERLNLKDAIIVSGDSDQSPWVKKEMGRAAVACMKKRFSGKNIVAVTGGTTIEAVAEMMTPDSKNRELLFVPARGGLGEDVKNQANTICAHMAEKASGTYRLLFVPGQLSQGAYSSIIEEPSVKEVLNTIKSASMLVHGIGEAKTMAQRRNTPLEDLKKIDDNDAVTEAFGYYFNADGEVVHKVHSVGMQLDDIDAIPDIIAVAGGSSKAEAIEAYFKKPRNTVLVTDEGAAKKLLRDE

B1: OLR full-length gapA operator, 45 bp (dsDNA)
DNA 1: TGACGGGACGTTTTTTGTCATAGCGGGACATATAATGTCCAGCAA
DNA 2: TTGCTGGACATTATATGTCCCGCTATGACAAAAAACGTCCCGTCA
binding result (CggR [1]): binds

B2: OR right half-operator, 23 bp (dsDNA)
DNA 1: TAGCGGGACATATAATGTCCAGC
DNA 2: GCTGGACATTATATGTCCCGCTA
binding result (CggR [2]): binds

B3: OR 23 bp, fluorescent (mix of two singly labelled duplexes) (dsDNA)
DNA 1: TAGCGGGACATATAATGTCCAGC
DNA 2: GCTGGACATTATATGTCCCGCTA
binding result (CggR [3]): binds
